According to publication PMC6614801:

Biological target: T1, SuhB (inositol mono-phosphatase SuhB), wild type (E. coli), P0ADG4
T1 chain: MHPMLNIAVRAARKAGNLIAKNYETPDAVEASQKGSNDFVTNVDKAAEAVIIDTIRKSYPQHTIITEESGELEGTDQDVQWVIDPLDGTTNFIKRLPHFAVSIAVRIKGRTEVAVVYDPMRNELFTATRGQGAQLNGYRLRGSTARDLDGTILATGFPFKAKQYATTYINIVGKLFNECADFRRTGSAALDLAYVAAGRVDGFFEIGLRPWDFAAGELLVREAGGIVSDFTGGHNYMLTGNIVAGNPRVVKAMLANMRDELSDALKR
Experiment: SEC-MALS; 60 μl (15 nmol) of SuhB on Superdex 200 increase 10/300; 20 mM HEPES pH 7.5, 50 mM NaCl, 0.02% (w/v) NaN3
Details: remark: other sources report otherwise

- stoichiometry N: 2
B1: SuhB (inositol mono-phosphatase SuhB), wild type, P0ADG4 1-267 (natural protein)
chain: T1 chain
